Assay results: FireProtDB (doi:10.1021/bi300982v)

B1: Cytochrome c-552, P04164 (parent)
chain: QADGAKIYAQCAGCHQQNGQGIPGAFPPLAGHVAEILAKEGGREYLILVLLYGLQGQIEVKGMKYNGVMSSFAQLKDEEIAAVLNHIATAWGDAKKVKGFKPFTAEEVKKLRAKKLTPQQVLAERKKLGLK

Variants of: B1
Conditions: Thermus thermophilus, pH 7, sodium phosphate 50 mM, transition: 2, reversible: yes, structure 1C52, whole UniProt chain shown; for denaturant midpoint (higher = more stable): 25 °C, GdnHCl; for Tm / change of melting temperature, mutant - wild type (higher = more stable) / heat capacity change of unfolding / unfolding enthalpy (calorimetric) / unfolding free energy: Thermal, CD

QADGAKIYAQCAGCHQQNGQGIPGAFPPLAGHVAEILAKEGGREYLILVLLYGLQGQIEVKGMKYNGVASSFAQLKDEEIAAVLNHIATAWGDAKKVKGFKPFTAEEVKKLRAKKLTPQQVLAERKKLGLK
denaturant midpoint (higher = more stable) (absorbance): 4.2 M | denaturant midpoint (higher = more stable) (far-UV-CD): 4.7 M | denaturant midpoint (higher = more stable) (heme-CD): 4.5 M | Tm: 93 °C | change of melting temperature, mutant - wild type (higher = more stable): -2 °C | heat capacity change of unfolding: 0.29 kcal/mol/K | unfolding enthalpy (calorimetric): 28.2 kcal/mol | unfolding free energy: 2.39 kcal/mol

QADGAKIYAQCAGCHQQNGQGIPGAFPPLAGHVAEILAKEGGREYLILVLLYGLQGQIEVKGMKYNGVHSSFAQLKDEEIAAVLNHIATAWGDAKKVKGFKPFTAEEVKKLRAKKLTPQQVLAERKKLGLK
denaturant midpoint (higher = more stable) (absorbance): 3.7 M | denaturant midpoint (higher = more stable) (far-UV-CD): 4 M | denaturant midpoint (higher = more stable) (heme-CD): 3.3 M | Tm: 99 °C | change of melting temperature, mutant - wild type (higher = more stable): 4 °C | heat capacity change of unfolding: 0.51 kcal/mol/K | unfolding enthalpy (calorimetric): 59.3 kcal/mol | unfolding free energy: 8.13 kcal/mol
